Assay: G-CSF release test and stability of G-CSF in buffer solution at room temperature
Assay type: physicochemical
Conditions: 1% BSA/Tris-HCl (pH 7.2), ELISA, FIG. 4
Protocol: Six hundred fifty μl of 5M CaCl2 was admixed with 250 μl of 500 μg/ml G-CSF with stirring. Then 2.5 ml of 1M Na2CO3 was added and stirred for 10 minutes to prepare CaCO3 particles. Five ml of H2O was added to the particles, and the mixture was centrifuged at 2,000 rpm for 5 min to remove the supernatant. To the resultant precipitate, 12.5 ml of H2O was added, and 1 ml of the mixture was taken into a 2.0 ml test tube. The test tube and content was centrifuged at 2,000 rpm for 5 min to remove the supernatant which was used for ELISA. To the resultant precipitate, 1 ml of 1% BSA/Tris—HCl (pH 7.2) was added and shaken at room temperature. The mixture was centrifuged every 24 hours at 2,000 rpm for 5 min to collect the supernatant and to the resultant precipitate 1 ml of 1% BSA/Tris—HCl (pH 7.2) was added again, and this operation was continued for 7 days. The last precipitate was dissolved with hydrochloric acid and used for ELISA. G-CSF was assayed using ELISA Kit manufactured by IBL Co. and the total (cumulative) amount of G-CSF released from the G-CSF-encapsulating CaCO3 preparation was shown. […] A part of the mixture was collected every 24 hours, and the amount of G-CSF was determined by ELISA to examine the stability of G-CSF at room temperature.

B1: free G-CSF: granulocyte colony-stimulating factor (Chugai Pharmaceutical) in 1% BSA/Tris-HCl solution, control (protein, UniProt P09919 31-207, looked up)
Granulocyte …: TPLGPASSLPQSFLLKCLEQVRKIQGDGAALQEKLVSECATYKLCHPEELVLLGHSLGIPWAPLSSCPSQALQLAGCLSQLHSGLFLYQGLLQALEGISPELGPTLDTLQLDVADFATTIWQQMEELGMAPALQPTQGAMPAFASAFQRRAGGVLVASHLQSFLEVSYRVLRHLAQP
stability of G-CSF: unstableness

From patent US20040185113A1, “Fine inorganic particles having drug included therein, method for preparation thereof and pharmaceutical preparation comprising fine inorganic particles having drug included therein” (priority 2001, published 2004)
